# Source: the RNAGym collection of RNA variant scans (doi:10.7554/elife.90254)
# B1: LINE1-mini (parent)
# chain: GGCAGAGCUCAACACAGCGUGGCAAAGUGGCUGUGGCUAGACUGCC
# Variants of: B1
# Experiment: self-cleavage, relative activity (ratio to wild type); higher = more cleavage; in vitro, sequencing; the parent is a self-cleaving ribozyme
row,Variant,self-cleavage
1,GGCAGAGCUCAACACAGCGUGGCAAAGUUGCUGUGUCUAGACUGCC,0.05
2,GGCAGAGCUCAACACAGCGUGGCAAAGUUGCUGUGACUAGACUGCC,0.17
3,GGCAGAGCUCAACACAGCGUGGCAAAGUUGCUGUGCCUAGACUGCC,0.1
4,GGCAGAGCUCAACACAGCGUGGCAAAGUCGCUGUGGCAAGACUGCC,0.08
5,GGCAGAGCUCAACACAGCGUGGCAAAGUCGCUGUGGCGAGACUGCC,0.02
6,GGCAGAGCUCAACACAGCGUGGCAAAGUCGCUGUGGCCAGACUGCC,0.11
7,GGCAGAGCUCAACACAGCGUGGCAAAGUGACUGUGUCUAGACUGCC,0.1
8,GGCAGAGCUCAACACAGCGUGGCAAAGUGACUGUGACUAGACUGCC,0.43
9,GGCAGAGCUCAACACAGCGUGGCAAAGUGACUGUGCCUAGACUGCC,0.07
10,GGCAGAGCUCAACACAGCGUGGCAAAGUUGCUGUGGCUAGACUGCC,1.09
11,GGCAGAGCUCAACACAGCGUGGCAAAGUGACUGCGGCUAGACUGCC,0.12
12,GGCAGAGCUCAACACAGCGUGGCAAAGUGACUGAGGCUAGACUGCC,0.05
13,GGCAGAGCUCAACACAGCGUGGCAAAGUGACUGGGGCUAGACUGCC,0.11
14,GGCAGAGCUCAACACAGCGUGGCAAAGUUGCUGUGGCUAGACUUCC,0.31
15,GGCAGAGCUCAACACAGCGUGGCAAAGUUGCUGUGGCUAGACUCCC,0.44
16,GGCAGAGCUCAACACAGCGUGGCAAAGUUGCUGUGGCUAGACUACC,0.41
17,GGCAGAGCUCAACACAGCGUGGCAAAGUGACUGUGGCUAGACUGCA,1.15
18,GGCAGAGCUCAACACAGCGUGGCAAAGUGACUGUGGCUAGACUGCG,1.5
19,GGCAGAGCUCAACACAGCGUGGCAAAGUGACUGUGGCUAGACUGCU,1.33
20,GGCAGAGCUCAACACAGCGUGGCAAAGUGACUGUGGCUAGACUCCC,0.56
21,GGCAGAGCUCAACACAGCGUGGCAAAGUGACUGUGGCUAGACUACC,0.64
22,GGCAGAGCUCAACACAGCGUGGCAAAGUGACUGUGGCUAGACUUCC,0.18
23,GGCAGAGCUCAACACAGCGUGGCAAAGUGACUGUGGCUCGACUGCC,0.4

row,Variant,self-cleavage
1,GGCAGAGCUCAACACAGCGUGGCAAAGUGACUGUGGCUGGACUGCC,0.11
2,GGCAGAGCUCAACACAGCGUGGCAAAGUGACUGUGGCUUGACUGCC,1.69
3,GGCAGAGCUCAACACAGCGUGGCAAAGUGACUGUGGUUAGACUGCC,0.11
4,GGCAGAGCUCAACACAGCGUGGCAAAGUGACUGUGGAUAGACUGCC,0.05
5,GGCAGAGCUCAACACAGCGUGGCAAAGUGACUGUGGGUAGACUGCC,0.06
6,GGCAGAGCUCAACACAGCGUGGCAAAGUUGCUGUGGCUAGAAUGCC,0.14
7,GGCAGAGCUCAACACAGCGUGGCAAAGUUGCUGUGGCUAGAUUGCC,0.44
8,GGCAGAGCUCAACACAGCGUGGCAAAGUUGCUGUGGCUAGAGUGCC,0.04
9,GGCAGAGCUCAACACAGCGUGGCAAAGUGACUGUGGCUAUACUGCC,0.18
10,GGCAGAGCUCAACACAGCGUGGCAAAGUGACUGUGGCUAAACUGCC,0.19
11,GGCAGAGCUCAACACAGCGUGGCAAAGUGACUGUGGCUACACUGCC,0.16
12,GGCAGAGCUCAACACAGCGUGGCAAAGUUCCUGUGGCUAGACUGCC,0.69
13,GGCAGAGCUCAACACAGCGUGGCAAAGUUACUGUGGCUAGACUGCC,1.92
14,GGCAGAGCUCAACACAGCGUGGCAAAGUUUCUGUGGCUAGACUGCC,1.72
15,GGCAGAGCUCAACACAGCGUGGCAAAGUUGCUGUGGCUAGACUGUC,1.99
16,GGCAGAGCUCAACACAGCGUGGCAAAGUUGCUGUGGCUAGACUGGC,0.78
17,GGCAGAGCUCAACACAGCGUGGCAAAGUUGCUGUGGCUAGACUGAC,0.63
18,GGCAGAGCUCAACACAGCGUGGCAAAGUUGCGGUGGCUAGACUGCC,0.27
19,GGCAGAGCUCAACACAGCGUGGCAAAGUUGCAGUGGCUAGACUGCC,0.34
20,GGCAGAGCUCAACACAGCGUGGCAAAGUUGCCGUGGCUAGACUGCC,0.16
21,GGCAGAGCUCAACACAGCGUGGCAAAGUUGCUGUGGCUAGACCGCC,0.08
22,GGCAGAGCUCAACACAGCGUGGCAAAGUUGCUGUGGCUAGACGGCC,0
23,GGCAGAGCUCAACACAGCGUGGCAAAGUUGCUGUGGCUAGACAGCC,0.2

row,Variant,self-cleavage
1,GGCAGAGCUCAACACAGCGUGGCAAAGUUGCUGUGGCCAGACUGCC,0.47
2,GGCAGAGCUCAACACAGCGUGGCAAAGUUGCUGUGGCAAGACUGCC,0.4
3,GGCAGAGCUCAACACAGCGUGGCAAAGUUGCUGUGGCGAGACUGCC,0.02
4,GGCAGAGCUCAACACAGCGUGGCAAAGUCGCUGCGGCUAGACUGCC,0.1
5,GGCAGAGCUCAACACAGCGUGGCAAAGUCGCUGAGGCUAGACUGCC,0.28
6,GGCAGAGCUCAACACAGCGUGGCAAAGUCGCUGGGGCUAGACUGCC,0.2
7,GGCAGAGCUCAACACAGCGUGGCAAAGUUGAUGUGGCUAGACUGCC,0.15
8,GGCAGAGCUCAACACAGCGUGGCAAAGUUGUUGUGGCUAGACUGCC,0.19
9,GGCAGAGCUCAACACAGCGUGGCAAAGUUGGUGUGGCUAGACUGCC,0.13
10,GGCAGAGCUCAACACAGCGUGGCAAAGUUGCUGUGGCUAGCCUGCC,0.05
11,GGCAGAGCUCAACACAGCGUGGCAAAGUUGCUGUGGCUAGGCUGCC,0.41
12,GGCAGAGCUCAACACAGCGUGGCAAAGUUGCUGUGGCUAGUCUGCC,0.9
13,GGCAGAGCUCAACACAGCGUGGCAAAGUUGCUGUGGUUAGACUGCC,0.05
14,GGCAGAGCUCAACACAGCGUGGCAAAGUUGCUGUGGGUAGACUGCC,0.04
15,GGCAGAGCUCAACACAGCGUGGCAAAGUUGCUGUGGAUAGACUGCC,0.13
16,GGCAGAGCUCAACACAGCGUGGCAAAGUGACUUUGGCUAGACUGCC,0.08
17,GGCAGAGCUCAACACAGCGUGGCAAAGUGACUAUGGCUAGACUGCC,0.1
18,GGCAGAGCUCAACACAGCGUGGCAAAGUGACUCUGGCUAGACUGCC,0.07
19,GGCAGAGCUCAACACAGCGUGGCAAAGUGACUGUGGCUAGACUGUC,1.57
20,GGCAGAGCUCAACACAGCGUGGCAAAGUGACUGUGGCUAGACUGAC,0.71
21,GGCAGAGCUCAACACAGCGUGGCAAAGUGACUGUGGCUAGACUGGC,0.4
22,GGCAGAGCUCAACACAGCGUGGCAAAGUCGCCGUGGCUAGACUGCC,0.7
23,GGCAGAGCUCAACACAGCGUGGCAAAGUCGCAGUGGCUAGACUGCC,0.31

row,Variant,self-cleavage
1,GGCAGAGCUCAACACAGCGUGGCAAAGUCGCGGUGGCUAGACUGCC,0.2
2,GGCAGAGCUCAACACAGCGUGGCAAAGUGACUGUAGCUAGACUGCC,0.12
3,GGCAGAGCUCAACACAGCGUGGCAAAGUGACUGUCGCUAGACUGCC,0.08
4,GGCAGAGCUCAACACAGCGUGGCAAAGUGACUGUUGCUAGACUGCC,0.09
5,GGCAGAGCUCAACACAGCGUGGCAAAGUGACUGUGGCUAGAAUGCC,0.14
6,GGCAGAGCUCAACACAGCGUGGCAAAGUGACUGUGGCUAGAUUGCC,0.6
7,GGCAGAGCUCAACACAGCGUGGCAAAGUGACUGUGGCUAGAGUGCC,0.05
8,GGCAGAGCUCAACACAGCGUGGCAAAGUGACUGUGGCUAGUCUGCC,0.6
9,GGCAGAGCUCAACACAGCGUGGCAAAGUGACUGUGGCUAGCCUGCC,0.07
10,GGCAGAGCUCAACACAGCGUGGCAAAGUGACUGUGGCUAGGCUGCC,0.27
11,GGCAGAGCUCAACACAGCGUGGCAAAGUUGCUGUGGCUACACUGCC,0.14
12,GGCAGAGCUCAACACAGCGUGGCAAAGUUGCUGUGGCUAUACUGCC,0.18
13,GGCAGAGCUCAACACAGCGUGGCAAAGUUGCUGUGGCUAAACUGCC,0.15
14,GGCAGAGCUCAACACAGCGUGGCAAAGUGAUUGUGGCUAGACUGCC,0.14
15,GGCAGAGCUCAACACAGCGUGGCAAAGUGAAUGUGGCUAGACUGCC,0.4
16,GGCAGAGCUCAACACAGCGUGGCAAAGUGAGUGUGGCUAGACUGCC,0.09
17,GGCAGAGCUCAACACAGCGUGGCAAAGUCGCUGUGGCUAGACCGCC,0.26
18,GGCAGAGCUCAACACAGCGUGGCAAAGUCGCUGUGGCUAGACGGCC,0.01
19,GGCAGAGCUCAACACAGCGUGGCAAAGUCGCUGUGGCUAGACAGCC,0.03
20,GGCAGAGCUCAACACAGCGUGGCAAAGUUGCUGUAGCUAGACUGCC,0.32
21,GGCAGAGCUCAACACAGCGUGGCAAAGUUGCUGUCGCUAGACUGCC,0.08
22,GGCAGAGCUCAACACAGCGUGGCAAAGUUGCUGUUGCUAGACUGCC,0.14
23,GGCAGAGCUCAACACAGCGUGGCAAAGUGACUGUGGCUAGACAGCC,0.12

row,Variant,self-cleavage
1,GGCAGAGCUCAACACAGCGUGGCAAAGUGACUGUGGCUAGACCGCC,0.22
2,GGCAGAGCUCAACACAGCGUGGCAAAGUUGCUGGGGCUAGACUGCC,0.27
3,GGCAGAGCUCAACACAGCGUGGCAAAGUUGCUGAGGCUAGACUGCC,0.37
4,GGCAGAGCUCAACACAGCGUGGCAAAGUUGCUGCGGCUAGACUGCC,0.13
5,GGCAGAGCUCAACACAGCGUGGCAAAGUUGCUGUGGCUAGACUGCA,0.82
6,GGCAGAGCUCAACACAGCGUGGCAAAGUUGCUGUGGCUAGACUGCG,0.93
7,GGCAGAGCUCAACACAGCGUGGCAAAGUUGCUGUGGCUAGACUGCU,1.51
8,GGCAGAGCUCAACACAGCGUGGCAAAGUGACCGUGGCUAGACUGCC,0.21
9,GGCAGAGCUCAACACAGCGUGGCAAAGUGACAGUGGCUAGACUGCC,0.13
10,GGCAGAGCUCAACACAGCGUGGCAAAGUGACGGUGGCUAGACUGCC,0.41
11,GGCAGAGCUCAACACAGCGUGGCAAAGUUGCUUUGGCUAGACUGCC,0.12
12,GGCAGAGCUCAACACAGCGUGGCAAAGUUGCUAUGGCUAGACUGCC,0.1
13,GGCAGAGCUCAACACAGCGUGGCAAAGUUGCUCUGGCUAGACUGCC,0.06
14,GGCAGAGCUCAACACAGCGUGGCAAAGUGACUGUGGCAAGACUGCC,0.72
15,GGCAGAGCUCAACACAGCGUGGCAAAGUGACUGUGGCGAGACUGCC,0.03
16,GGCAGAGCUCAACACAGCGUGGCAAAGUGACUGUGGCCAGACUGCC,0.64
17,GGCAGAGCUCAACACAGCGUGGCAAAGUGACUGUGGCUAGACUGCC,1.87
18,GGCAGAGCUCAACACAGCGUGGCAAAGUUGCUGUGGCUGGACUGCC,0.06
19,GGCAGAGCUCAACACAGCGUGGCAAAGUUGCUGUGGCUCGACUGCC,0.21
20,GGCAGAGCUCAACACAGCGUGGCAAAGUUGCUGUGGCUUGACUGCC,0.7
